Data from patent publication US5969101.

What was measured:
[1] = target: c-Abl wild type, full length

relative transforming activity, colonies in soft agar of Rat1/P185 BCR-Abl cells (P185 BCR-Abl) | No. of Agar Colonies (per 10^4 cells) (agar colonies per 10^4 cells) [1] | No. of Agar Colonies (per 10^4 cells) (agar colonies per 10^4 cells) (c-Abl K290R) | Substance
70% | – | – | HA-tagged Abi-2Δ1-100 (pCGN/abi-2Δ1-100)
– | 563 | 3 | HA-tagged Abi-2Δ1-157 (pCGN/abi-2Δ1-157)
